# Values of other authors, collected in paper PMC4626678.
# Target: Trypsin (Bos taurus) (UniProt P00760)
# Sequence (P00760 149-246): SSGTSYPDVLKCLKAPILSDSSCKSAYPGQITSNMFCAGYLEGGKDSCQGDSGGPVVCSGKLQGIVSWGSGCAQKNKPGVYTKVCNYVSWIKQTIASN
# Chain of ShPI-1 (P31713 whole entry): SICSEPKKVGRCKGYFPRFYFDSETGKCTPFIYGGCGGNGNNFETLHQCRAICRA
substance,measurement,value
ShPI-1 (from UniProt P31713),Ki,0.11 nM
